Experimental data: patent US20240002497A1 (Merck Sharp & Dohme, published 2024)
One block for each binder: values may come before it.

Tests used:
[1] = target: T1, huNav1.7α+β1-β2-β3 (human, UniProt Q15858 1-1988; Q07699 19-218; O60939 30-215; Q9NY72 23-215); experiment: binding FACS, CHO FlpIn cells
T1 construct: 5N11S variant; also called huNav1.7-beta1-beta2-beta3; huNav1.7α+Navβ1-Navβ2-Navβ3
Summary of the method: (§1)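 FLAG3-tagged ISVD, 30 min, 4° C, FACS buffer (PBS/10% FBS/NaN₃); 1×10^5 cells/well; detection murine anti-Flag; PI 1 μg/mL live gate; washes between steps.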

[2] = target: T2, muNav1.7α (murine, UniProt Q62205 1-1984); experiment: binding FACS, HEK JmpIn
T2 construct: HEK JmpIn cells; also called murine Nav1.7α
Experimental: (§2) Binding of the ISVDs to cell-expressed Nav1.7α was detected via murine anti-Flag (Sigma, catalog #F1804). Briefly, cells were resuspended in FACS buffer (PBS, 10% FBS, NaN₃) and transferred to a 96-well V-bottom plate at 1×10^5 cells/well. Purified FLAG3-tagged ISVD was diluted in FACS buffer and added to the cells for 30 minutes at 4° C. […] Prior to the read-out, the samples were resuspended in 1 μg/mL propidium iodide (Sigma, catalog #P4170) to exclude dead cells. Between each step, the cells were centrifuged for 5 minutes at 200 grams and washed with 100 μL/well FACS buffer.

[3] = target: T3, rhNav1.7α + β1-β2-β3 (rhesus monkey); experiment: binding FACS, CHO FlpIn
T3 construct: also called rhNav1.7-beta1-beta2-beta3; rhNav1.7-β1-β2-β3
Summary of the method: as §1

[4] = target: T4, huNav1.7α + β1-β2-β3 (human, UniProt Q15858 1-1988; A5A6L6 19-218; O60939 30-215; Q2KI11 23-215); experiment: binding FACS, CHO FlpIn
T4 construct: also called huNav1.7-beta1-beta2-beta3; huNav1.7-β1-β2-β3
Summary of the method: as §1

[5] = target: T5, huNav1.7α + β1-β2-β3 (human, UniProt Q15858 1-1988; A5A6L6 19-218; O60939 30-215; Q2KI11 23-215); experiment: binding FACS, CHO FlpIn cells
T5 construct: Cell line (CHO FlpIn, HEK FlpIn, transient HEK293T) is named under assay; also called huNav1.7-beta1-beta2-beta3; human Nav1.7α with Navβ1, Navβ2 and Navβ3
Summary of the method: as §1

[6] = target: T6, huNav1.7α + β1 (HEKa/β1) (human, UniProt Q15858 1-1988; Q07699 19-218); experiment: binding FACS, HEKa/β1 cells
T6 construct: also called HEKa/β1 huNav1.7α
Experimental: as §2

B1: F010301301 (VHH)
VHH: EVQLVESGGGLVQAGGSLRLSCDASGRILRTGYMRWHRQGAGKQREFVARITDDSATDYADSVKGRFTISRDNAKNTVYLQMNNLNPEDTAVYYCEALVTASVRGGSIHSGTYWGRGTLVTVSS
notes: vs 387G05: I31T
EC50 [1]: 7.3 nM

B3: F010301360 (VHH)
VHH: EVQLVESGGGLVQAGGSLRLSCDASGRILRIGYMRWHRQGAGKQREFVARITDDSTTDYADSVKGRFTISRDNAKNTVYLQMNNLNPEDTAVYYCEALVTASVRGGSIHSGTYWGRGTLVTVSS
notes: vs 387G05: A56T
EC50 [1]: 5.2 nM

B4: F010301387 (VHH)
VHH: EVQLVESGGGLVQAGGSLRLSCDASGRILRIGYMRWHRQGAGKQREFVARITDDSATDYADSVKGRFTISRDNAKNTVYLQMNNLNPEDTAVYYCEALVTASARGGSIHSGTYWGRGTLVTVSS
notes: vs 387G05: V100A
EC50 [1]: 5.2 nM

B5: F010301418 (VHH)
VHH: EVQLVESGGGLVQAGGSLRLSCDASGRILRIGYMRWHRQGAGKQREFVARITDDSATDYADSVKGRFTISRDNAKNTVYLQMNNLNPEDTAVYYCEALVTASVRGGSIHSGTWWGRGTLVTVSS
notes: vs 387G05: Y102W
EC50 [1]: 4.9 nM

B6: F010301328 (VHH)
VHH: EVQLVESGGGLVQAGGSLRLSCDASGRILRIGYMRWHRQGAGKQREFVARITDDSAVDYADSVKGRFTISRDNAKNTVYLQMNNLNPEDTAVYYCEALVTASVRGGSIHSGTYWGRGTLVTVSS
notes: vs 387G05: T57V
EC50 [1]: 5 nM

B7: F010301313 (VHH)
VHH: EVQLVESGGGLVQAGGSLRLSCDASGRILRIGYMKWHRQGAGKQREFVARITDDSATDYADSVKGRFTISRDNAKNTVYLQMNNLNPEDTAVYYCEALVTASVRGGSIHSGTYWGRGTLVTVSS
notes: vs 387G05: R35K
EC50 [1]: 5.5 nM

B8: F010301409 (VHH)
VHH: EVQLVESGGGLVQAGGSLRLSCDASGRILRIGYMRWHRQGAGKQREFVARITDDSATDYADSVKGRFTISRDNAKNTVYLQMNNLNPEDTAVYYCEALVTASVRGGSIVSGTYWGRGTLVTVSS
notes: vs 387G05: H100fV
EC50 [1]: 5.1 nM

B9: F010301304 (VHH)
VHH: EVQLVESGGGLVQAGGSLRLSCDASGRILRWGYMRWHRQGAGKQREFVARITDDSATDYADSVKGRFTISRDNAKNTVYLQMNNLNPEDTAVYYCEALVTASVRGGSIHSGTYWGRGTLVTVSS
notes: vs 387G05: I31W
EC50 [1]: 5.7 nM

B10: F010301335 (VHH)
VHH: EVQLVESGGGLVQAGGSLRLSCDASGRILRIGYMRWHRQGAGKQREFVAVITDDSATDYADSVKGRFTISRDNAKNTVYLQMNNLNPEDTAVYYCEALVTASVRGGSIHSGTYWGRGTLVTVSS
notes: vs 387G05: R50V
EC50 [1]: 7.9 nM

B12: F010301309 (VHH)
VHH: EVQLVESGGGLVQAGGSLRLSCDASGRIVRIGYMRWHRQGAGKQREFVARITDDSATDYADSVKGRFTISRDNAKNTVYLQMNNLNPEDTAVYYCEALVTASVRGGSIHSGTYWGRGTLVTVSS
notes: vs 387G05: L29V
EC50 [1]: 5.4 nM

B13: F010301425 (VHH)
VHH: EVQLVESGGGLVQAGGSLRLSCDASGRILRIGYMRWHRQGAGKQREFVARITDDSATDYADSVKGRFTISRDNAKNTVYLQMNNLNPEDTAVYYCEALVTASVRVGSIHSGTYWGRGTLVTVSS
notes: vs 387G05: G100bV
EC50 [1]: 15 nM

More lines, now with the values ahead:

binding result [1]: no binding
B2: F010301416 (VHH)
VHH: EVQLVESGGGLVQAGGSLRLSCDASGRILRIGYMRWHRQGAGKQREFVARITDDSATDYADSVKGRFTISRDNAKNTVYLQMNNLNPEDTAVYYCEALVTASVRGGSIHSGQYWGRGTLVTVSS
notes: vs 387G05: T101Q

EC50 [1]: 5.7 nM
B11: F010301440 (VHH)
VHH: EVQLVESGGGLVQAGGSLRLSCDASGRILRIGYMRWHRQGAGKQREFVARITDDSATDYADSVKGRFTISRDNAKNTVYLQMNNLNPEDTAVYYCEALVTASVRGGSIHSTTYWGRGTLVTVSS
notes: vs 387G05: G100hT

EC50 [2]: 11 nM | EC50 [3]: 62 nM | Bmax [4]: 98% | EC50 [4]: 6.3 nM
B14: F010301868 (VHH)
VHH: EVQLVESGGGVVQPGGSLRLSCATTSRAFIRDVFTGWYRRVPGKERELVARIYNGGNTNYADFAKGRFTISRDNAKKMVYLQMNSLRPEDTALYYCLFSGTINTGREYRSGDYWGQGTLVTVSS
notes: also called F0103464B09(L11V, S68T, T79Y, R81Q, S82aN, N82bS, K83R, G88A, V89L)

EC50 [2]: 21 nM | EC50 [3]: 57 nM | Bmax [4]: 100% | EC50 [4]: 6.8 nM
B15: F010301872 (VHH)
VHH: EVQLVESGGGVVQPGGSLRLSCATSSRAFIRDVFTGWYRRVPGKERELVARIYNGGNTNYADFAKGRFTISRDNAKKMVYLQMNSLRPEDTALYYCLFSGTINTGREYRSGDYWGQGTLVTVSS
notes: also called F0103464B09(L11V, T25S, S68T, T79Y, R81Q, S82aN, N82bS, K83R, G88A, V89L)

EC50 [2]: 24 nM | EC50 [3]: 37 nM | Bmax [4]: 100% | EC50 [4]: 5.8 nM
B16: F010301871 (VHH)
VHH: EVQLVESGGGVVQPGGSLRLSCAATSRAFIRDVFTGWYRRVPGKERELVARIYNGGNTNYADFAKGRFTISRDNAKKMVYLQMNSLRPEDTALYYCLFSGTINTGREYRSGDYWGQGTLVTVSS
notes: also called F0103464B09(L11V, T24A, S68T, T79Y, R81Q, S82aN, N82bS, K83R, AG88, V89L)

EC50 [2]: 17 nM | EC50 [3]: 96 nM | Bmax [4]: 100% | EC50 [4]: 7.6 nM
B17: F010301869 (VHH)
VHH: EVQLVESGGGVVQPGGSLRLSCATTSRAFIRDVFTGWYRRVPGKERELVARIYNGGNTNYADFAKGRFTISRDNAKKTVYLQMNSLRPEDTALYYCLFSGTINTGREYRSGDYWGQGTLVTVSS
notes: also called F0103464B09(L11V, S68T, M77T, T79Y, R81Q, S82aN, N82bS, K83R, G88A, V89L)

EC50 [2]: 42 nM | EC50 [3]: 110 nM | Bmax [4]: 100% | EC50 [4]: 9 nM
B18: F010301873 (VHH)
VHH: EVQLVESGGGVVQPGGSLRLSCATTSRAFIRDVFTGWYRQVPGKERELVARIYNGGNTNYADFAKGRFTISRDNAKKMVYLQMNSLRPEDTALYYCLFSGTINTGREYRSGDYWGQGTLVTVSS
notes: also called F0103464B09(L11V, R39Q, S68T, T79Y, R81Q, S82aN, N82bS, K83R, G88A, V89L)

EC50 [5]: 170 nM | EC50 [6]: 44 nM
B19: F010301617 (VHH)
VHH: EVQLVESGGGLVQAGGSLRLSCAASVRPFSTSAMGWFRQAPEKEREAVAGILWNGIVTYYADSVKGRFTISRDNAKNEVYLQMNKLKPEDTAVYYCALDRDYGGRSQSAYEYEYWGQGTLVTVSS
notes: F100cQ vs F0103362B08 (Kabat)

EC50 [5]: 76 nM | EC50 [6]: 23 nM
B20: F010301627 (VHH)
VHH: EVQLVESGGGLVQAGGSLRLSCAASVRPFSTSAMGWFRQAPEKEREAVAAILWNGIVTYYADSVKGRFTISRDNAKNEVYLQMNKLKPEDTAVYYCALDRDYGGRSFSAYEYEYWGQGTLVTVSS
notes: G50A vs F0103362B08 (Kabat)

EC50 [5]: 190 nM | EC50 [6]: 39 nM
B21: F010301618 (VHH)
VHH: EVQLVESGGGLVQAGGSLRLSCAASVRPFSTSAMGWFRQAPEKEREAVAGILWNGIVTYYADSVKGRFTISRDNAKNEVYLQMNKLKPEDTAVYYCALDRDYGGRSFSAYEYEHWGQGTLVTVSS
notes: Y102H vs F0103362B08 (Kabat)

EC50 [5]: 150 nM | EC50 [6]: 34 nM
B22: F010301621 (VHH)
VHH: EVQLVESGGGLVQAGGSLRLSCAASVRPFSTSAMGWFRQAPEKEREAVAGILWNGIVTYYADSVKGRFTISRDNAKNEVYLQMNKLKPEDTAVYYCALDRDYGGRSFSAGEYEYWGQGTLVTVSS
notes: Y100fG vs F0103362B08 (Kabat)

EC50 [5]: 170 nM | EC50 [6]: 40 nM
B23: F010301622 (VHH)
VHH: EVQLVESGGGLVQAGGSLRLSCAASVRPFSTSAMGWFRQAPEKEREAVAGILWNGIVTYYADSVKGRFTISRDNAKNEVYLQMNKLKPEDTAVYYCALDRDYGGRSFSADEYEYWGQGTLVTVSS
notes: Y100fD vs F0103362B08 (Kabat)

EC50 [5]: 180 nM | EC50 [6]: 47 nM
B24: F010301619 (VHH)
VHH: EVQLVESGGGLVQAGGSLRLSCAASVRPFSTSAMGWFRQAPEKEREAVAGILWNGIVTYYADSVKGRFTISRDNAKNEVYLQMNKLKPEDTAVYYCALDRDYGGRSKSAYEYEYWGQGTLVTVSS
notes: F100cK vs F0103362B08 (Kabat)

EC50 [5]: 120 nM | EC50 [6]: 42 nM
B25: F010301629 (VHH)
VHH: EVQLVESGGGLVQAGGSLRLSCAASVRPFSTSAMGWFRQAPEKEREAVASILWNGIVTYYADSVKGRFTISRDNAKNEVYLQMNKLKPEDTAVYYCALDRDYGGRSFSAYEYEYWGQGTLVTVSS
notes: G50S vs F0103362B08 (Kabat)
